Molecular target: CXCR4 (human) (UniProt P61073)
Assay: cell-based or functional assay

Chain of UniProt P61073 (P61073 whole entry): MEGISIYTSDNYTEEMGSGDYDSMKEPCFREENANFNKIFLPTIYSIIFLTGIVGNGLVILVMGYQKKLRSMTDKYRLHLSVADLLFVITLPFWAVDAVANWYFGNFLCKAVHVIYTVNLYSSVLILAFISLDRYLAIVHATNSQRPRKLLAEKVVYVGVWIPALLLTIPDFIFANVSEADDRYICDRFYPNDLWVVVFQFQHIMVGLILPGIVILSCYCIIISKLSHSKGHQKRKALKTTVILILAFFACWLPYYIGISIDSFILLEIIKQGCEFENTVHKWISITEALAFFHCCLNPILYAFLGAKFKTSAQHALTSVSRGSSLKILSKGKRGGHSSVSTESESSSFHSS

T22-DITOX-H6 (from UniProt P00587 26-411)
IC50 of killing cultured HeLa cells: 0.78 nM

T22-PE24-H6
IC50 of killing cultured HeLa cells: 0.99 nM
